± gives the standard deviation of the averaged measurements.

The subject of this series is Saccharomyces cerevisiae. Put plainly: protein stability index of tFT-peptide fusion (C-terminal peptide) (PSI (0-1 scale)); higher = more stable (slower turnover). Particulars: temperature: 30 C. As for the experimental part:
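MPS profiling in S. cerevisiae of the yeast C-terminome library: the last 12 aa of each annotated ORF are fused to the C-terminus of a sfGFP-mCherry timer, after a GGGS linker. Cells are FACS-sorted into 8 mCherry/sfGFP bins and deep-sequenced. PSI runs from 0 (unstable) to 1 (stable); wild type and das1Δ backgrounds, two technical replicates each.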

Setting [1] is: genetic background: das1 deletion.

VSLLLNSLALFF [YGL204C C-terminal 12 aa]: the protein stability index runs as follows: under setting [1], 0.688 ± 0.021; (genetic background: wild type) 0.6623 ± 0.0058.

Regarding VSNLEVLEELFP [DPI35 C-terminal 12 aa], the protein stability index is, setting by setting: under setting [1], 0.722 ± 0.015; (genetic background: wild type) 0.7123 ± 0.0038.

Take VTEAESTASAST [BUD20 C-terminal 12 aa]: the protein stability index by setting is: under setting [1], 0.7 ± 0.013; (genetic background: wild type) 0.6926 ± 0.006.

Turning to VVEKVSSITNRN [SRF1 C-terminal 12 aa], the protein stability index under setting [1] turned out to be 0.6869 ± 0.0056 and the protein stability index (genetic background: wild type) is 0.669 ± 0.065.

VVPAVLFAFLLV [YDL118W C-terminal 12 aa] displayed a protein stability index under setting [1] of 0.446 ± 0.0098 and a protein stability index (genetic background: wild type) of 0.4 ± 0.0053.

VYENNSYPNSHT [RTT105 C-terminal 12 aa] registered a protein stability index under setting [1] of 0.6964 ± 0.0011 and a protein stability index (genetic background: wild type) of 0.678 ± 0.023.

For WDKQKALERRSV [CNS1 C-terminal 12 aa], the protein stability index came out at 0.723 ± 0.015 under setting [1] and 0.705 ± 0.024 (genetic background: wild type).

For WGSIGQKLRRSA [YOL118C C-terminal 12 aa], the protein stability index reads like this: under setting [1], 0.704 ± 0.012; (genetic background: wild type) 0.728 ± 0.015.

As for WLRKWLSTFVHQ [YNL018C C-terminal 12 aa], the protein stability index under setting [1] came out at 0.732 ± 0.042 and the protein stability index (genetic background: wild type) was determined as 0.23 ± 0.022.

Take WRRSKSISTHLR [YLR366W C-terminal 12 aa]: the protein stability index stood at 0.711 ± 0.0074 under setting [1] and 0.681 ± 0.034 (genetic background: wild type).

With WSPLHAAKRHRI [MRPL51 C-terminal 12 aa], the protein stability index runs as follows: under setting [1], 0.692 ± 0.014; (genetic background: wild type) 0.695 ± 0.02.

As to YAGHRFHDGNKL [ERR1 C-terminal 12 aa], the protein stability index was found to be 0.726 ± 0.009 under setting [1] and 0.737 ± 0.043 (genetic background: wild type).

Consider YAINSGARFDLS [HUL5 C-terminal 12 aa], for which the protein stability index worked out at 0.713 ± 0.025 under setting [1] and 0.687 ± 0.0069 (genetic background: wild type).

On to YANAPIEEKPLI [PUN1 C-terminal 12 aa], for which the protein stability index reads like this: under setting [1], 0.702 ± 0.018; (genetic background: wild type) 0.683 ± 0.017.

Turning to YDYLINNKTIFD [POF1 C-terminal 12 aa], the protein stability index was 0.722 ± 0.022 under setting [1] and 0.736 ± 0.022 (genetic background: wild type).

YEEGESIFGSLF [REV7 C-terminal 12 aa] had a protein stability index under setting [1] of 0.71 ± 0.029 and a protein stability index (genetic background: wild type) of 0.7145 ± 0.0024.

The sequence YENEEIQRKRCI [YOR364W C-terminal 12 aa] displayed a protein stability index under setting [1] of 0.696 ± 0.017 and a protein stability index (genetic background: wild type) of 0.658 ± 0.0062.

In the case of YFSSNISMKTEN [REB1 C-terminal 12 aa], the protein stability index stood at 0.7171 ± 0.0057 under setting [1] and 0.7373 ± 0.0014 (genetic background: wild type).

Take YIKKSAKKGDKN [YHR140W C-terminal 12 aa]: the protein stability index stood at 0.676 ± 0.032 under setting [1] and 0.65 ± 0.016 (genetic background: wild type).

With YKAVSVSANSPE [SOG2 C-terminal 12 aa], the protein stability index under setting [1] came out at 0.689 ± 0.016 and the protein stability index (genetic background: wild type) was 0.673 ± 0.032.

The sequence YKNNWLILQQQD [KSP1 C-terminal 12 aa] returned a protein stability index under setting [1] of 0.694 ± 0.066 and a protein stability index (genetic background: wild type) of 0.703 ± 0.082.

With YNGGGKKLDGFW [YSP3 C-terminal 12 aa], the protein stability index under setting [1] came out at 0.7015 ± 0.0059 and the protein stability index (genetic background: wild type) was found to be 0.691 ± 0.025.

Consider YNKICSLASRVI [MRPL38 C-terminal 12 aa], for which the protein stability index worked out at 0.669 ± 0.0074 under setting [1] and 0.673 ± 0.017 (genetic background: wild type).

The sequence YPVDKEGDIVLE [THP2 C-terminal 12 aa] displayed a protein stability index under setting [1] of 0.679 ± 0.0084 and a protein stability index (genetic background: wild type) of 0.662 ± 0.039.

As for YQCSETSTPRNT [GIC1 C-terminal 12 aa], the protein stability index amounted to 0.723 ± 0.025 under setting [1] and 0.675 ± 0.012 (genetic background: wild type).

As for YRIIDCVIAQLP [NVJ3 C-terminal 12 aa], the protein stability index is, setting by setting: under setting [1], 0.669 ± 0.045; (genetic background: wild type) 0.655 ± 0.046.

YSDGRNYKESSI [CSS3 C-terminal 12 aa]: the protein stability index turned out to be 0.69 ± 0.037 under setting [1] and 0.656 ± 0.045 (genetic background: wild type).

As for YSILWSDVYPDS [PDR1 C-terminal 12 aa], the protein stability index reads like this: under setting [1], 0.7408 ± 0.0068; (genetic background: wild type) 0.754 ± 0.013.

In the case of YTINYETNTVEY [NUP133 C-terminal 12 aa], the protein stability index reads like this: under setting [1], 0.641 ± 0.024; (genetic background: wild type) 0.6455 ± 0.0026.

For YVKEAQSVVTSL [YIR043C C-terminal 12 aa], the protein stability index runs as follows: under setting [1], 0.672 ± 0.013; (genetic background: wild type) 0.659 ± 0.029.

As to YVSHKGFIVEDM [RPL9B C-terminal 12 aa], the protein stability index is, setting by setting: under setting [1], 0.695 ± 0.0088; (genetic background: wild type) 0.6932 ± 0.006.

Consider YWRKQYPDADIP [YCR007C C-terminal 12 aa], for which the protein stability index stood at 0.71925 ± 0.00051 under setting [1] and 0.747 ± 0.025 (genetic background: wild type).

These data come from the supplement of paper PMC10724198.
